Source: PMC6608616 (IUCrJ, 2019)

Target: Tryptophan synthase β subunit (TrpB) from Streptococcus pneumoniae (Streptococcus pneumoniae TIGR4, UniProt Q97P32 4-407, PLP covalently attached to Lys91)
Experiment: crystal structure
Conditions: both partners purified

B1: Tryptophan synthase α subunit (TrpA) from Streptococcus pneumoniae (enzyme)
chain: MPKTLTEKLNAIKAAGKGIFVPYIMAGDHEKGLDGLAETIHFLEDLGVSAIEVGIPFSDPVADGPVIEEAGLRSLAHGTSTQALVETLKTIETEIPLVIMTYFNPLFQYGVENFVKDLADTAVKGLIIPDLPHEHANFVEPFLANTDIALIPLVSLTTGIERQKELIEGAEGFIYAVAINGVTGKSGNYRADLDKHLAQLHQVADIPVLTGFGVSSQADLERFNAVSDGVIVGSKIVKALHQGEPIQDFIRQAVAYQK
binding result: binds
